{
  "source": "patent US20110117021A1",
  "biological_target": "human VAP-1 expressed on the surface of transfected Ax rat endothelial cells (human) (UniProt Q16853)",
  "sequence (Q16853 whole entry)": "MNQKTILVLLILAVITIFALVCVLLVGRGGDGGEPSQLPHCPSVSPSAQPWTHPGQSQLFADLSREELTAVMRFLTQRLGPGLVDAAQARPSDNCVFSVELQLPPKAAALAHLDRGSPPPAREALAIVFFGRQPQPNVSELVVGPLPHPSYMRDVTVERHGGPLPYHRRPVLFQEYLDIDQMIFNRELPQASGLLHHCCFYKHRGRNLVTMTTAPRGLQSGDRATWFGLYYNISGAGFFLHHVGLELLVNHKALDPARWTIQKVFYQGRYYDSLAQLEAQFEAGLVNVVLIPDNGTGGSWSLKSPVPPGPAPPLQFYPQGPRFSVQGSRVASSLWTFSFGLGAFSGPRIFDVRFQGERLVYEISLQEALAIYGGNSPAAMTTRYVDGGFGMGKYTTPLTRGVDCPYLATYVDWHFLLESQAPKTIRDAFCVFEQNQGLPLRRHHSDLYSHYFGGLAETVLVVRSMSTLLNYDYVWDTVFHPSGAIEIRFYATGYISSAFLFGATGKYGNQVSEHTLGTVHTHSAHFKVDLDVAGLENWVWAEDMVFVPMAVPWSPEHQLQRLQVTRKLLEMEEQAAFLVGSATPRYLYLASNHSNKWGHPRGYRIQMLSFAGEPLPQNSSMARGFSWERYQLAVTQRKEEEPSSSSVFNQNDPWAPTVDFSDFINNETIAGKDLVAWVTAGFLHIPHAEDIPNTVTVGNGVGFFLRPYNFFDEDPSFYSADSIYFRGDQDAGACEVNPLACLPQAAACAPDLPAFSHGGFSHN",
  "experiment": "cell-based or functional assay",
  "data": [
    {"substance": "BTT-1002, chimeric anti-VAP-1 monoclonal antibody", "values": [
      {"measurement": "migration of human PBMC through a monolayer of Ax endothelial cells expressing human VAP-1 (in vitro transmigration assay)", "result": 1}
    ]}
  ]
}
